1 substance from publication PMC5216932 can be followed below.

For this test, the target named is Fas/CD95 (human (endogenous in U-2 OS)) (UniProt P25445).
Chain of UniProt P25445 (P25445 26-335): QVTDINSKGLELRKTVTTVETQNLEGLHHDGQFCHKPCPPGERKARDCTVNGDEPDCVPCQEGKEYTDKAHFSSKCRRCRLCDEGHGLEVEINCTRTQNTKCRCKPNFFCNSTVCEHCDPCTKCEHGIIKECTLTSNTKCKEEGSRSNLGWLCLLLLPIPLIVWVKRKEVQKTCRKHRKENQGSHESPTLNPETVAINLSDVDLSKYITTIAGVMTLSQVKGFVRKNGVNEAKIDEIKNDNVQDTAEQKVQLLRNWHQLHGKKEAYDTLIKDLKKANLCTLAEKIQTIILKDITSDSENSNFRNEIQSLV

For Fas ligand (from UniProt P48023 1-281), the U-2 OS cell death with no granzyme-B FRET signal change in co-culture with primary NK cells (3-day cultured in IL-2), with 1.5 μg/ml anti-Fas neutralizing antibody (clone ZB4); control about 65% was 28%.
